In patent publication US20240010747A1, “ANTI-MRP4 (ENCODED BY ABCC4 GENE) ANTIBODIES AND USES THEREOF” (Kenjockety Biotechnology, Inc., priority 2020, published 2024):

T1: human ABCC4 (Homo sapiens, UniProt O15439)
T1 construct: expressed in transfected cells
T1 sequence (O15439 1-1325): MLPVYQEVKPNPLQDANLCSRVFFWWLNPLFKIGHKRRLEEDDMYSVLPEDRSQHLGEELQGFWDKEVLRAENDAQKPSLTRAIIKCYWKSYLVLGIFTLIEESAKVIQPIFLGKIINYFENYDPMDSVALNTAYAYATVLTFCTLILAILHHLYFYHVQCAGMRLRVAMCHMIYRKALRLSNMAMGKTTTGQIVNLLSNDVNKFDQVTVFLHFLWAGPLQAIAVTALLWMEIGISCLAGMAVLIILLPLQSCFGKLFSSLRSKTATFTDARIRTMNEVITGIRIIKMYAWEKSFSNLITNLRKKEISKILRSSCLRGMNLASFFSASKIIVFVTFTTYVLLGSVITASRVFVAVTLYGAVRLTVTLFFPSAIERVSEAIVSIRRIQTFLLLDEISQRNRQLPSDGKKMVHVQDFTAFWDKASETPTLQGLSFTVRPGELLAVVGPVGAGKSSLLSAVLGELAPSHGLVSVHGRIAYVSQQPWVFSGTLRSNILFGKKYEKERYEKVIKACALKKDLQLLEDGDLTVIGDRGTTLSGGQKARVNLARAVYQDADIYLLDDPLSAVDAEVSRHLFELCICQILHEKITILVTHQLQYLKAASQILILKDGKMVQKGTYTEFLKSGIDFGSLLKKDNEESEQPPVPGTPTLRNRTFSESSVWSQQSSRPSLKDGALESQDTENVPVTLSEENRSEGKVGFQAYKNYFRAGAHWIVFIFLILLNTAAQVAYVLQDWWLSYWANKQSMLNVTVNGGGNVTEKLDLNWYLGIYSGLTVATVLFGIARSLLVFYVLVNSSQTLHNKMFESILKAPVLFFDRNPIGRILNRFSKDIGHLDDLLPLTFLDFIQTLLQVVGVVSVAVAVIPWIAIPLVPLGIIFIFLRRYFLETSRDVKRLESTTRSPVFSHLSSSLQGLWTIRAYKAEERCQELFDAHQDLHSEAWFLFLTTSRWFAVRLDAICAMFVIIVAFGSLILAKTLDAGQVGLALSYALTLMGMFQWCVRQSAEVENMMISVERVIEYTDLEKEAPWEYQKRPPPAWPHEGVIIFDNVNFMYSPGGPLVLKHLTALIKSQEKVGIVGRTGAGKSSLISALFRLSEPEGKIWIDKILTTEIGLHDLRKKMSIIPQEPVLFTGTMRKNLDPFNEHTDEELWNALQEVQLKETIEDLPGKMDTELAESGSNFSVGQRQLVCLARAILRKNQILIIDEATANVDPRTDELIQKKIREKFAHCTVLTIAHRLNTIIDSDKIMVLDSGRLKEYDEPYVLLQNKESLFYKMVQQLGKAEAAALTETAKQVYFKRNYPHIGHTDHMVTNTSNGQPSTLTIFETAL


Tests used:
human ABCC4 = biological target: T1, human ABCC4; assay: Flow cytometry (FACS) binding to C6 cells stably transfected to express human ABCC4 (different experiment, Table 4); conditions: C6 cells stably transfected to express human ABCC4, FACS; different experiment, Table 4
Procedure, shortened: (§1)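 Murine C6 cells stably expressing FLAG-tagged human or cynomolgus ABCC4 incubated 30 min on ice with antibodies, either 5 ug/mL or serially diluted from 100 ug/mL, in PBS+2% FBS+0.02% azide. Detection with PE anti-human IgG F(ab′)2 by flow cytometry; EC50 at half-maximal MFI; negative below background, positive >3× background.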

cynomolgus ABCC4 = assay: Flow cytometry (FACS) binding to C6 cells stably transfected to express cynomolgus ABCC4 (different experiment, different C6.cC4 cell line, Table 4); set-up: key to Cynomolgus ABCC4 binding: Negative (−)=Rmax (MFI) below background level; Positive (+)=MFI>3× background level; conditions: different C6.cC4 cell line, C6 cells stably transfected to express cynomolgus ABCC4, FACS; Table 4
Procedure, shortened: as §1

| Molecule | Human ABCC4 binding (human ABCC4) | Cynomolgus ABCC4 binding (cynomolgus ABCC4) |
| --- | --- | --- |
| C4.1059 (antibody, V domains shown) VH: QVQLLQSGAALVKPGASVKMSCKPSGYTFTDYWVSWVKQSHGKSLEWIGEIYPNNGATNFNEKFKGKATLTVDKSTSTAYMELSRLTSEDSAIYYCPSRKYGYNWNFDYWGQGTMVTVSS VL: DIVLTQSPALAVSLGQRATISCWASQSVSISRYNLMHWYQQKPGQQPKLLIYRASNLASGIPARFSGSGSGTDFTLTINPVQADDIATYYCQQSGESPWTFGGGTKLELK | + (Positive (+)=MFI>3× background level) | − |
| C4.1148 (antibody, V domains shown) VH: EVQLVESDGGLVQPGRSLKLSCAASGFTFSDYYMAWVRQAPPKGLEWVATISYDAFTTYYRDSVKGRFTISRDNAKTILFLQMDSLRSEDTATYYCIRLSTRYKGVMDAWGHGASVTVSS VL: DIQMTQSPSNLAASPGESVSINCKASETIYKYLAWYQQKPGRTNKLLIYSGSTLQSGTPSRFSGSGSGTDFTLTIRNLEPEDFGRYYCQHHVEYPPTFGAGTKLELK | + (Positive (+)=MFI>3× background level) | − |
| C4.1139 (antibody, V domains shown) VH: EVQLVESDGGLVQPGRSLKLSCAASGFTFSDYYMAWVRQAPTKGLYWVASISYDGSTTYYRDSVKGRFTISRDNAKSTLYLQMGSLRSEDTATYYCARLSIRYKGVMDAWGRGASVTVSS VL: DVVMTQSPSNLAASPGESVSINCKASKSIGKFLAWYQQKPGRPNKLLIYSGSTLQSGTPSRFSGSGSGTDFTLTIRNLEPGDFGLYYCQHHIEYPPTFGPGTKLELK | + (Positive (+)=MFI>3× background level) | − |
